Measurements reported in the supplement of paper PMC9732359.
± gives the uncertainty stated by the source.

Experiment: protein stability index of a GFP-peptide fusion (yeast GPS) (PSI 1-4); higher = more stable; sorted into four equal gates, so the index is relative within each strain
In short: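 Sequencing reads from sorted gates were used to score each peptide. The library consisted of tiled 17-residue yeast protein peptides fused downstream of GFP on a Cherry-expressing plasmid, pooled and carried in yeast. Mid-log cultures in leucine-free medium were split into four equal gates by GFP/Cherry ratio, and each gate's plasmids were PCR-amplified and Illumina-sequenced. The protein stability index adds up, over all gates, the read frequency multiplied by the gate number.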

| Sequence | protein stability index (doa10∆) | protein stability index (pdr5∆) | protein stability index (san1∆) | protein stability index (ubr1∆) |
| --- | --- | --- | --- | --- |
| FERPAVKEEKEDMETQA [RPC53] | 2.87 ± 0.24 | 2.71 ± 0.23 | 3.2 ± 0.084 | 3.46 ± 0.16 |
| VQKDTAIIRLHPSIYTQ [POP1] | 2.73 ± 0.29 | 2.19 ± 0.11 | – | 1.88 ± 0.14 |
| PISAVLRGCKFLQSVDI [GRR1] | 2.08 ± 0.041 | 2.08 ± 0.053 | 1.83 ± 0.052 | 2.01 ± 0.036 |
| MFIEEPTRMVRVAKGSG [SRP54] | 3.09 ± 0.19 | 2.95 ± 0.23 | 2.75 ± 0.24 | 3.26 ± 0.15 |
| DDSTKFQLVNDVMDELI [SIR3] | 3.29 ± 0.15 | 3.37 ± 0.15 | 3.47 ± 0.1 | 3.39 ± 0.086 |
| DDQCMLITTYSKLSKNI [SIN4] | 1.97 ± 0.065 | 2.42 ± 0.076 | 1.87 ± 0.2 | 2.01 ± 0.038 |
| LRLLEVTDDDRLWLKKV [POP8] | 1.36 ± 0.061 | 1.68 ± 0.072 | 1.35 ± 0.095 | 1.61 ± 0.071 |
| NYEIVFDTVSNKLFTEP [YMR129W/POM152] | 2.97 ± 0.055 | 3.02 ± 0.06 | 2.88 ± 0.055 | 3.03 ± 0.032 |
| YTQQQALEYIGAKVKTM [RET1] | 1.97 ± 0.063 | 2.34 ± 0.072 | 2.25 ± 0.086 | 2.1 ± 0.059 |
| LLQSSIINKLIHIQSKE [POP3] | 2.49 ± 0.069 | 2.5 ± 0.044 | 1.91 ± 0.058 | 2.28 ± 0.048 |
| QSESRQKRQLHDISKTE [SNU114] | 3 ± 0.096 | 2.87 ± 0.071 | 3.13 ± 0.073 | 3.04 ± 0.046 |
| SLAILGMNLLSNLSQNV [SWI1] | 2.44 ± 0.055 | 2.94 ± 0.058 | 2.69 ± 0.052 | 2.81 ± 0.046 |
| RFNVVKVSAAAGKANKQ [RPS11A] | 1.44 ± 0.068 | 1.38 ± 0.087 | 2.92 ± 0.18 | 2.22 ± 0.067 |
| LHNIWSNGLLSIVLLLL [YML103C/NUP188] | 1.38 ± 0.069 | 1.34 ± 0.059 | 1.5 ± 0.14 | 1.54 ± 0.12 |
| LPKYQTIQYDPPETKLP [SNF5] | 3.03 ± 0.052 | 2.96 ± 0.046 | 2.92 ± 0.04 | 3.01 ± 0.039 |
| LHYLKKFKHIDDKYGRK [SRP72] | 2.91 ± 0.061 | 2.88 ± 0.057 | 3.07 ± 0.055 | 2.85 ± 0.041 |
| SKLIPEVINKEIENATK [RPS1A] | 2.86 ± 0.22 | – | 2.78 ± 0.23 | 3.16 ± 0.19 |
| SVAEVFQKAQGSYAGHR [YCG1] | 1.9 ± 0.11 | 1.38 ± 0.18 | 1.65 ± 0.24 | 1.5 ± 0.072 |
| EGNAGGDQKTSENRNNI [YOR098C/NUP1] | – | 3.6 ± 0.17 | 3.19 ± 0.17 | 3.36 ± 0.074 |
| ATVDEFPLCVHLVSNEL [RPL10] | 3.01 ± 0.073 | 2.93 ± 0.067 | 3.05 ± 0.069 | 2.99 ± 0.053 |
| FRGNISQPKIGYGSNKK [RPL32] | 2.88 ± 0.094 | 2.88 ± 0.06 | 2.88 ± 0.067 | 2.89 ± 0.049 |
| SVVKKEDNKYAIAGNST [RGR1] | 3.1 ± 0.084 | 2.63 ± 0.072 | 3.02 ± 0.054 | 2.92 ± 0.054 |
| SAIVNEDGLLEGLDELP [SOH1] | 2.95 ± 0.14 | 3.24 ± 0.082 | 2.78 ± 0.15 | 2.8 ± 0.12 |
| KYPIFTGESWVKLTYNS [YDL088C/ASM4] | 1.82 ± 0.049 | 2.07 ± 0.068 | 2.07 ± 0.1 | 2.34 ± 0.058 |
| SPMLKRIKITANNNMND [GRR1] | 2.36 ± 0.055 | 2.4 ± 0.078 | 1.77 ± 0.079 | 2.71 ± 0.048 |
| LGQERATDLAGPANNPN [PRP8] | 2.94 ± 0.048 | 3.04 ± 0.068 | 2.95 ± 0.053 | 3.17 ± 0.057 |
| LLVQSLNDMVLELKENY [NNF1] | 2.75 ± 0.14 | 1.52 ± 0.1 | – | – |

| Sequence | protein stability index (doa10∆) | protein stability index (pdr5∆) | protein stability index (san1∆) | protein stability index (ubr1∆) |
| --- | --- | --- | --- | --- |
| ALAQQKLLTPQDMEAAK [GAL11] | 3.2 ± 0.12 | 3.38 ± 0.13 | 3.4 ± 0.1 | 3.32 ± 0.095 |
| NFLETIASTEKPENKTD [SIR4] | 2.94 ± 0.1 | 2.93 ± 0.089 | 2.77 ± 0.11 | 3.13 ± 0.092 |
| AHCILGIGGDHAKFSPV [RPC40] | 2.59 ± 0.085 | 2.82 ± 0.15 | 2.41 ± 0.12 | 2.85 ± 0.068 |
| RTAPKSDNVYLKLLVKL [RPL18A] | 2.6 ± 0.092 | 2.8 ± 0.093 | 2.7 ± 0.089 | 3.03 ± 0.068 |
| DKKNKRLKFGHRLIATH [SNF2] | 2.02 ± 0.077 | 1.8 ± 0.057 | 1.85 ± 0.091 | 2 ± 0.056 |
| STGCVVGLSQPDAKIQV [YMR129W/POM152] | 2.29 ± 0.15 | 2.47 ± 0.21 | 2.47 ± 0.063 | 2.42 ± 0.091 |
| KEHEPCIIFMDEVDAIG [RPT4] | 1.85 ± 0.049 | 1.92 ± 0.059 | 1.79 ± 0.12 | 1.98 ± 0.072 |
| YIELLPNADDIRDSIPQ [DIS3] | 2.83 ± 0.075 | 2.85 ± 0.068 | 2.87 ± 0.078 | 2.75 ± 0.039 |
| YSTLKELLEYSDDIAEN [YCG1] | 2.81 ± 0.048 | 2.84 ± 0.053 | 2.74 ± 0.053 | 2.59 ± 0.04 |
| KIRRAARDLLTRDEKDP [RPS9A] | 2.33 ± 0.08 | 2.49 ± 0.065 | 2.3 ± 0.093 | 2.58 ± 0.078 |
| FIYGEDGMDAAHIEKQS [RPO21] | 3.31 ± 0.069 | 3.29 ± 0.084 | 3.38 ± 0.054 | 3.36 ± 0.043 |
| RERRAALTDFERFQVMV [RPL14A] | 1.77 ± 0.12 | 2.24 ± 0.094 | 1.41 ± 0.13 | 1.8 ± 0.07 |
| AMTIYWDDHTKKPLSMA [CDC53] | 2.87 ± 0.077 | 2.67 ± 0.091 | 2.69 ± 0.048 | 2.85 ± 0.062 |
| STEEIEYIELEYRDLYT [YMR129W/POM152] | 2.56 ± 0.11 | 3.04 ± 0.14 | 2.94 ± 0.13 | 2.72 ± 0.05 |
| KEASQEDDNNNVEKPSS [YLR335W/NUP2] | 3.11 ± 0.088 | 3.22 ± 0.071 | 3.06 ± 0.053 | 3.18 ± 0.066 |
| IKHKHKKVKLAVLSYYK [RPS31] | 2.23 ± 0.047 | 2.59 ± 0.074 | 2.37 ± 0.073 | 2.25 ± 0.048 |
| LPILPIQRLRLLREKQR [YOR098C/NUP1] | 2.09 ± 0.086 | 1.55 ± 0.062 | 1.17 ± 0.25 | 2.02 ± 0.097 |
| SNYDWLFQLLNALTVGD [RPN9] | 2.34 ± 0.076 | 2.52 ± 0.075 | 2.2 ± 0.083 | 2.56 ± 0.048 |
| SHLFNEYSYVDSNMDSI [RPN4] | 3.26 ± 0.1 | 3.56 ± 0.087 | 2.93 ± 0.1 | 3.06 ± 0.069 |
| LVHTQIRKTPLAQKKAH [RPL3] | 1.37 ± 0.057 | 1.38 ± 0.049 | 1.65 ± 0.069 | 1.63 ± 0.034 |
| NYNSTSRSTEKKNDMNT [SIR4] | 2.33 ± 0.061 | 2.48 ± 0.058 | 2.61 ± 0.079 | 2.55 ± 0.049 |
| AKLSERSNGSVASLSKR [YJL039C/NUP192] | 2.33 ± 0.052 | 2.06 ± 0.043 | 1.81 ± 0.054 | 1.89 ± 0.035 |
| QGSMSERPPYILNSYGV [SIR2] | 2.73 ± 0.072 | 3.03 ± 0.084 | 3 ± 0.066 | 2.87 ± 0.045 |
| ELLKSSLQKAGSKMEAK [AAR2] | 3.23 ± 0.077 | 3.35 ± 0.085 | 3.05 ± 0.079 | 3.07 ± 0.079 |
| RIGTIVHKERHDGGFDL [RPS4A] | – | 2.54 ± 0.16 | 1.65 ± 0.17 | 1.99 ± 0.23 |
| IPGGPKFEPLYPREEEE [PRP8] | 3.01 ± 0.11 | 2.78 ± 0.15 | 3.01 ± 0.11 | 2.91 ± 0.13 |
